Laboratory results: patent publication US20030092037A1, “Elk1 phosphorylation related gene” (priority 2001, published 2003)

B1: 150 (protein, listed as Homo sapiens)
chain: MSSGKSARYNRFSGGPSNLPTPDVTTGTRMETTFGPAFSAVTTITKADGTSTYKQHCRTPSSSSTLAYSPRDEEDSMPPISTPRRSDSAISVRSLHSESSMSLRSTFSLPEEEEEPEPLVFAEQPSVKLCCQLCCSVFKDPVITTCGHTFCRRCALKSEKCPVDNVKLTVVVNNIAVAEQIGELFIHCRHGCRVAGSGKPPIFEVDPRGCPFTIKLSARKDHEGSCDYRPVRCPNNPSCPPLLRMNLEAHLKECEHIKCPHSKYGCTFIGNQDTYETHLETCRFEGLKEFLQQTDDRFHEMHVALAQKDQEIAFLRSMLGKLSEKIDQLEKSLELKFDVLDENQSKLSEDLMEFRRDASMLNDELSHINARLNMGILGSYDPQQIFKCKGTFVGHQGPVWCLCVYSMGDLLFSGSSDKTIKVWDTCTTYKCQKTLEGHDGIVLALCIQGCKLYSGSADCTIIVWDIQNLQKVNTIRAHDNPVCTLVSSHNVLFSGSLKAIKVWDIVGTELKLKKELTGLNHWVRALVAAQSYLYSGSYQTIKIWDIRTLDCIHVLQTSGGSVYSIAVTNHHIVCGTYENLIHVWDIESKEQVRTLTGHVGTVYALAVISTPDQTKVFSASYDRSLRVWSMDNMICTQTLLRHQGSVTALAVSRGRLFSGAVDSTVKVWTC
B2: 12 (protein, listed as Homo sapiens)
chain: MDHHQPGTGRYQVLLNEEDNSESSAIEQPPTSNPAPQIVQAASSAPALETDSSPPPYSSITVEVPTTSDTEVYGEFYPVPPPYSVATSLPTYDEAEKAKAAAMAAAAAETSQRIQEEECPPRDDFSDADQLRVGNDGIFMLAFFMAFIFNWLGFCLSFCITNTIAGRYGAICGFGLSLIKWILIVRFSDYFTGYFNGQYWLWWIFLVLGLLLFFRGFVNYLKVRNMSESMAAAHRTRYFFLL
B3: 6 (protein, listed as Homo sapiens)
chain: MEGPGLGSQCRNHSHGPHPPGFGRYGICAHENKELANAREALPLIEDSSNCDIVKATQYGIFERCKELVEAGYDVRQPDKENVSLLHWAAINNRLDLVKFYISKGAVVDQLGGDLNSTPLHWAIRQGHLPMVILLLQHGADPTLIDGEGFSSIHLAVLFQHMPIIAYLISKGQSVNMTDVNGQTPLMLSAHKVIGPEPTGFLLKFNPSLNVVDKIHQNTPLHWAVAAGNVNAVDKLLEAGSSLDIQNVKGETPLDMALQNKNQLIIHMLKTEAKMRANQKFRLWRWLQKCELFLLLMLSVITMWAIGYILDFNSDSWLLKGCLLVTLFFLTSLFPRFLVGYKNLVYLPTAFLLSSVFWIFMTWFILFFPDLAGAPFYFSFIFSIVAFLYFFYKTWATDPGFTKASEEEKKVNIITLAETGSLDFRTFCTSCLIRKPLRSLHCHVCNCCVARYDQHCLWTGRCIGFGNHHYYIFFLFFLSMVCGWIIYGSFIYLSSHCATTFKEDGLWTYLNQIVACSPWVLYILMLATFHFSWSTFLLLNQLFQIAFLGLTSHERISLQKQSKHMKQTLSLRKTPYNLGFMQNLADFFQCGCFGLVKPCVVDWTSQYTMVFHPAREKVLRSV
B4: 16 (protein, listed as Homo sapiens)
chain: MSSLGGGSQDAGGSSSSSTNGSGGSGSSGPKAGAADKSAVVAAAAPASVADDTPPPERRNKSGIISEPLNKSLRRSRPLSHYSSFGSSGGSGGGSMMGGESADKATAAAAAASLLANGHDLAAAMAVDKSNPTSKHKSGAVASLLSKAERATELAAEGQLTLQQFAQSTEMLKRVVQEHLPLMSEAGAGLPDMEAVAGAEALNGQSDFPYLGAFPINPGLFIMTPAGVFLAESALHMAGLAEYPMQGELASAISSGKKKRKRCGMCAPCRRRINCEQCSSCRNRKTGHQICKFRKCEELKKKPSAALEKVMLPTGAAFRWFQ
B5: 18 (protein, listed as Homo sapiens)
chain: MPVQLSEHPEWNESMHSLRISVGGLPVLASMTKAADPRFRPRWKVILTFFVGAAILWLLCSHRPAPGRPPTHNAHNWRLGQAPANWYNDTYPLSPPQRTPAGIRYRIAVIADLDTESRAQEENTWFSYLKKGYLTLSDSGDKVAVEWDKDHGVLESHLAEKGRGMELSDLIVFNGKLYSVDDRTGVVYQIEGSKAVPWVILSDGDGTVEKGFKAEWLAVREIVRKRWRLVKQVSHVGVLGQWIQR
B6: 26 (protein, listed as Homo sapiens)
chain: MALALAALAAVEPACGSRYQQLQNEEESGEPEQAAGDAPPPYSSISAESAAYFDYKDESGFPKPPSYNVATTLPSYDEAERTKAEATIPLVPGRDEDFVGRDDFDDADQLRIGNDGIFMLTFFMAFLFNWIGFFLSFCLTTSAAGRYGAISGFGLSLIKWILIVRFSTYFPGYFDGQYWLWWVFLVLGFLLFLRGFINYAKVRKMPETFSNLPRTRVLFIY
B7: 148 (protein, listed as Homo sapiens)
chain: MNHIVQTFSPVNSGQPPNYEMLKEEQEVAMLGAPHNPAPPTSTVIHIRSETSVPDHVVWSLFNTLFMNTCCLGFIAFAYSVKSRDRKMVGDVTGAQAYASTAKCLNIWALILGIFMTILLIIIPVLVVQAQR
B8: 154 (protein, listed as Homo sapiens)
chain: MAPAGCCCCCCFWGGAVAAAGAARRVLLLLLLGVLSARLRPGALATEHYSPLSLLKQELQHRQQQEAPAGGGGCSPQSGDWGDQYSAECGESSFLNFHDSDCEPKGSSPCDSLLSLNTEKILSQAKSIAEQKRFPFATDNDSTNEELAIAYVLIGSGLYDEAIRHFSTMLQILSPLGRINEAVNDLTKAIQLQPSARLYRHRGTLYFISEDYATAHEDFQQSLELNKNQPIAMLYKGLTFFHRGLLKEAIESFKEALKQKVDFIDAYKSLGQAYRELGNFEAATESFQKALLLNQNHVQTLQLRGMMLYHHGSLQEALKNFKRCLQLEPYNEVCQYMKGLSHVAMGQFYEGIKAQTKVMLNDPLPGQKASPEYLKVKYLREYSRYLHAHLDTPLTEYNIDVDLPGSFKDHWAKNLPFLIEDYEEQPGLQPHIKDVLHQNFESYKPEVQELICVADRLGSLMQYETPGFLPNKRIHRAMGLAALEVMQAVQRTWTNSKVRMNGKTRLMQWRDMFDIAVKWRRIADPDQPVLWLDQMPARSLSRGFNNHINLIRGQVINMRYLEYFEKILHFIKDRILVYHGANNPKGLLEVREALEKVHKVEDLLPIMKFNTKTKDGFTVNTKVPSLKDQGKEYDGFTITITGDKVGNILFSVETQTTEERTQLYHAEIDALYKDLTAKGKVLILSSEFGEADAVCNLILSLVYYFYNLMPLSRGSSVIAYSVIVGALMASGKEVAGKIPKGKLVDFEAMTAPGSEAFSKVAKSWMNLKSISPSYKTLPSVSETFPTLRSMIEVLNTDSSPRCLKKL
B9: 152 (protein, listed as Homo sapiens)
chain: MAPAGCCCCCCFWGGAVAAAGAARRVLLLLLLGVLSAGLRPGALATEHYSPLSLLKQELQHRQQQEAPAGGGGCSPQSGDWGDQYSAECGESSFLNFHDSDCEPKGSSPCDSLLSLNTEKILSQAKSIAEQKRFPFATDNDSTNEELAIAYVLIGSGLYDEAIRHFSTMLQEEPDLVSAIYGRGIAYGKKGLHDIKNAELALFELSRVITLEPDRPEVFEQRAEILSPLGRINEAVNDLTKAIQLQPSARLYRHRGTLYFISEDYATAHEDFQQSLELNKNQPIAMLYKGLTFFHRGLLKEAIESFKEALKQKVDFIDAYKSLGQAYRELGNFEAATESFQKALLLNQNHVQTLQLRGMMLYHHGSLQEALKNFKRCLQLEPYNEVCQYMKGLSHVAMGQFYEGIKAQTKVMLNDPLPGQKASPEYLKVKYLREYSRHLHAHLDTPLTEYNIDVDLPGSFKDHWAKNLPFLIEDYEEQPGLQPHIKDVLHQNFESYKPEVQELICVADRLGSLMQYETPGFLPNKRIHRAMGLAALEVMQAVQRTWTNSKVRMNGKTRLMQWRDMFDIAVKWRRIADPDQPVLWLDQMPARSLSRGFNNHINLIRGQVINMRYLEYFEKILHFIKDRILVYHGANNPKGLLEVREALEKVHKVEDLLPIMKQFNTKTKDGFTVNTKVPSLKDQGKEYDGFTITITGDKVGNILFSVETQTTEERTQLYHAEIDALYKDLTAKGKVLILSSEFGEADAVCNLILSLVYYFYNLMPLSRGSSVIAYSVIVGALMASGKEVAGKIPKGKLVDFEAMTAPGSEAFSKVAKSWMNLKSISPSYKTLPSVSETFPTLRSMIEVLNTDSSPRCLKKL

What follows are molecules tested on MAP kinase cascade activation (assay: Reporter activity reflecting MAP kinase cascade activation, corrected using an internal control (Elk1-GAL4 luciferase reporter in 293-EBNA cells)). Settings: 12.5 ng/well expression plasmid; 293-EBNA cells; 24 hours.
Format: cell-based, human
Protocol: (in the presence of 5% CO2). […] The method used for introduction was in accordance with the attached protocol. After culturing for 24 hours at 37° C., reporter activity (firefly luciferase acitivity), which reflects MAP kinase cascade activation, and reporter activity being the internal control (sea pansy luciferase) were measured using Picagene Dual (purchased from Toyo Ink Manufacturing) in accordance with the manufacturer's instructions.
Luciferase activity was measured with Perkin Elmer's Wallac ARVOTMST 1420 MULTILABEL COUNTER.
Reporter activity where an expression plasmid comprising the above gene was introduced, which reflects MAP kinase cascade activation corrected with internal control reporter activity, is shown in Table 1, which is expressed as a factor of the same reporter activity where a null vector was introduced (S/B value).
B1 was tested, and the “Reporter activity corrected with internal control, as a factor of null vector (S/B value)” value (“Reporter activity corrected” for short) was 6.7.

Same assay, conditions: 25 ng/well expression plasmid; 293-EBNA cells; 24 hours
For B2, the “Reporter activity corrected” value was 2.1. B3 was tested, and the “Reporter activity corrected” value was 2.1. In the case of B4, the “Reporter activity corrected” value is reported as 3.4. For B5, the “Reporter activity corrected” value was 1.8. In the case of B6, the “Reporter activity corrected” value is reported as 1.6. In the case of B1, the “Reporter activity corrected” value is reported as 2.8. B7 was tested, and the “Reporter activity corrected” value was 1.6.

Same assay, conditions: 50 ng/well expression plasmid; 293-EBNA cells; 24 hours
B2 was tested, and the “Reporter activity corrected” value was 2.7. For B3, the “Reporter activity corrected” value was 2.4. For B4, the “Reporter activity corrected” value was 8.4. With B5 the “Reporter activity corrected” value was 2.3. In the case of B6, the “Reporter activity corrected” value is reported as 3.2. With B1 the “Reporter activity corrected” value was 1.7. With B7 the “Reporter activity corrected” value was 3.4.

Same assay, conditions: 100 ng/well expression plasmid; 293-EBNA cells; 24 hours
B2 was tested, and the “Reporter activity corrected” value was 3.9. In the case of B3, the “Reporter activity corrected” value is reported as 2.9. For B4, the “Reporter activity corrected” value was 8.1. For B5, the “Reporter activity corrected” value was 2.9. For B6, the “Reporter activity corrected” value was 4.1. With B7 the “Reporter activity corrected” value was 5.0.

Same assay, conditions: plasmid 12.5 ng, 25 ng, 50 ng and 100 ng
For B2, the “Dependence of corrected reporter activity on amount of expression plasmid” value (from here on “Dependence”) was “increases that were dependent on the amount of expression plasmid”. B3 was tested, and the “Dependence” value was “increases that were dependent on the amount of expression plasmid”. B4 was tested, and the “Dependence” value was “increases that were dependent on the amount of expression plasmid”. In the case of B5, the “Dependence” value is reported as “increases that were dependent on the amount of expression plasmid”. For B8, the “Dependence” value was “increases that were dependent on the amount of expression plasmid”. In the case of B9, the “Dependence” value is reported as “increases that were dependent on the amount of expression plasmid”. In the case of B6, the “Dependence” value is reported as “increases that were dependent on the amount of expression plasmid”. B1 was tested, and the “Dependence” value was “increases that were dependent on the amount of expression plasmid”. With B7 the “Dependence” value was “increases that were dependent on the amount of expression plasmid”.
